Data published in the nanobody polyreactivity screen of Harvey et al. (2022).

Assay: yeast display, Sf9 membrane polyspecificity reagent, FACS + sequencing; frameworks hold sequencing errors
In short: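 Nanobodies came from a synthetic yeast display library in Saccharomyces cerevisiae BJ5465, induced with galactose for 36–48 hours and stained for 1 hour at 4 °C with 10% biotinylated, detergent-solubilized Sf9 membrane reagent. Cells were enriched on streptavidin microbeads and then FACS-sorted, with low and high (top ~1%) gates set on anti-HA fluorescence for expression and streptavidin fluorescence for reagent binding. Each polyreactivity label reflects the gate a clone came from. Genes were amplified by colony PCR, sequenced by MiSeq 2 × 250 and filtered by CDR length.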

| Sequence | polyreactivity (PSR sort gate) |
| --- | --- |
| QVQLVESGGGLVQAGGSLRLSCAASGRNFRLNAMGWYRQAPGKERDLVARITGSYGGSTYYADSVKGRFTISRDNAKNTVSLQMISLKPEDSAGYYCADDGTGSYKGYYWGLGTQVTVSS | high polyreactivity |
| QVQLVESGGGLVQAGGSLRLSCAASGITFGSYAMGWYRQAPGKERELVAAINSRGSRTYYADSVKVRFTISRDNAKNTVYLQMNSLKPEDTAVYYCAASNSHVGPNDYWGQGTQVTVSS | high polyreactivity |
| QDLLVESGAGLVQAGGSVRLSCAASGRIVYTYAMAWYRQAPGIERELVAVISSGGSTYYADSVKGRFTNSRDNAKNTVYLQMNSLTPEDTAVYYCAAYGTKWGRGFYITGYGYWGQGTQVTVSS | low polyreactivity |
| QVQLVESGGGLVQAGGSLRLSCAASGIIFQYYAMGWYRQAPGKERELVAAINSGTTTYYADSVKGRFTITRDNAKNTVYLQMNSLKPEDTAVYYWNKDWHSQDFSAYNSYDYWGQGTQVTVSS | low polyreactivity |
| QVQLVESGGGIVQAGGSLRLSCAASGSTFGFYAMGWYRQAPGKERELVAAISSAARTYYADSVKGRFTISRDNAMNTVYLQMNSMKPEDTAVYYCSAEAYHWTSYIGYGGVYYWGQGTKVTVSS | low polyreactivity |
| QVQLVESGGGLVQAGGSLRLSCAASGRILYRYAMGWYRQAPGKERELVAAITWRGGTTYYADSVKGRFTISRDNAKNTVYLQMNSLKPEYTAVYYCNADWWRTLESDFWGQGTQVTVSS | low polyreactivity |
| QVQLVESGGGLVQAGGSLRLSCAASGLTFAPYVMGWYRQAPGKERELVPAISRSGGSTYYADSVKGRFTISRDNAKNTVYLQMNSLKPEDTAVYYCNRDVSLSAFDYWGQGTQVTVSS | high polyreactivity |
| QVQLVESGGRLVQAGGSLRLSCAASGRTFVYNAMGWYRQAPGKESELVAAISSGGGTNYADSVKGRFTISRDNAKNTVYLQMNSLKPEDTAVYYCAAGFDGSRHPGFDSWGQGTQVTVSS | low polyreactivity |
| QVQLVESGGGLVQAGGSLRLSCAASGSIFAYNAMGWYRQAPGKERELVAGISSRGGRTYYADSVKGRFTISRDNAKNTVYLQKNSLKPEDTAVYNCNKRSVPGTYYPTPVRYKYDYWGQGTQVTVSS | high polyreactivity |
| QVQLVESGGGLVQAGGSLRLSCAASGSTFSFYAMGWYRQAPGKERELVAAISRSGGSTFYADSVKGRFTISRDNAKNTVYLQMNSLKPEDTAVYYCAAYGGLQSRYYYWGQGTQVTVSS | high polyreactivity |
| QVQIVESGGGLVQAGGSLRLSCAASGSIFGYAMGWYRPAPGKERELVAAISFSGVSTYYADSVKGRFTISRDNAKNTVYLQMNSLKPEDTAVYYCNAYSDGDEDYWGQGTQVTVSS | low polyreactivity |
| QVQLVESGGGLVQAGGSLRLSCAASGFTFYYYAMGWYRPAPGKERELVAGITGSGGRTYYADSVKGRFTISRDNAKITVYLQMNSLKPEDTAVYYSNARSLWYDYWGQGTQVTVSS | high polyreactivity |
| QVQLVESGGGLVQAGGSLRLSCAASGFIFAWYAMGWYRQAPGKERELVARISRGGSTYYADSVKGRFTISRDNAKNTVYLHMNSLKPEYTAVYYCTAGAAYTYTRYDYWGQGTQVTVSS | high polyreactivity |
| QVQLVESGGGLVQAGGSLRLSCAASGRIFPGYAMGWYRQAPGKERELVAAISGGGGRTYYADSVKGRFTISRDNAKNTVYLQMNSLKPEDTAVYYCAADTTPPRGFDYWGQGTQVTVSS | high polyreactivity |
| QVQLVESGGGLVQAGGSLRLSCAASGSTFTLYAMGWYRQAPGKERELVAAISGIGDSTYYADSVKGRFTISRDYAKNNVYLQKNSLKPEDTAVYYCAADGEYRYDWEYESWGQGTHVTVSS | low polyreactivity |
| QVQLVESGGGLVQAGGSLRLSCAASGRIIGYYAMGWYRQAPGKERELGAAITRGGSTNYADSVKGRFTISRDNAKNTVYLQMNSLKPEDTAVYYCAADLARYGKRYDYWGQGTQVTVSS | low polyreactivity |
| QVQLVESGGGLVQAGGSLRLSCAASGFILTSYAMGWNRQAPGKERELVAAISSRGGRTYYADSVKGRFTISRDNAKNTVYLQMNSLKPEDTAVYYCNAVVYVVGDFDYWGQGTQVTVSS | high polyreactivity |
| QVQLVESGGGLVQARGSLRLSCAASGSIFGKNVMGWYRQAPGKERELVAAISRSGGRTYYADSVKGRFTISRDNAKNTVYLQMNSLKPEDTAVYYCAADGQPIGQQTYDYWGQGTQVTVSS | high polyreactivity |
| QVQLVESGGGLVQAGGSLRLSCAASGFTFKYYALGWYRQAPGKERELVAAIRGSGAGTYYADSVKGRFTISRDNSKNTVYLQMNSLKPEDTAVYYCNNRWTYKWDDYWGQGTQVTVSS | high polyreactivity |
| QVQLVESGGGLVQAGGSLRLSCAASGGTIAYAMGWYRQAPGKERELVAAISKHGGRTYYADSVKGRFTISRDNAKNTVYLQMNSLKPEDSAVYYCAADAFRGFYWGQGTQVTVSS | high polyreactivity |
| QVQLVESGGGLVQAGGSLRLICAASGGIFPTYDMVWYRQAPGKERELVAAIDRNGTSTTYSDSVKGRFTISRDNAKNTVYLQMNSLKPEDTEVYYCAAGYNDQTSAYDYWGHGTQVTVSS | low polyreactivity |
| QVQLVESGGGLVQAGGSLRLSCAASGRIIWKNTMGWYRQAPGKERELVAAITYGGSTNYADSVKGRFTISRDNAKNTVYLQMNSLKPEDTAVYYCNAQISWDSGWGYSYHLDYWGQGTQVTVSS | low polyreactivity |

| Sequence | polyreactivity (PSR sort gate) |
| --- | --- |
| QVQLVESGRGLVHAGGSLRLSCAASGFILGVNERGWYRQAPGKERELVAAISQGDGSKYYADSVKGRFTISRDNANNTVYLQMNSLKPEDTAVYYCNAELYRDLRGYDHWGQGTQVTVSS | low polyreactivity |
| QVQRVDSGGGLVQAGGSLRLSCAASGITFTLYDMGWYRQAPGKERELVASITSDGSTDYADSVKGRFTISRDNAKNTVYLQMISLKPEDTAVYYCNARVTYSWYRFGRSGDDSWGQGTQVTVSS | low polyreactivity |
| QVQLVESGGGLVQAGGSLRLSCAASGRIFAFYAMGWSRPAPGKERELVAAITSGGSTKYADSVKGRFTISRDNAKNTVYLQMNSLKPEDTAVYYCAAQYRYQRYSYAMEYWGQCTQVTVSS | high polyreactivity |
| QVQLVESGGGLVQAGGSLRLSCAASGRILRSYAMGWYRPAPGKERELVAAISWRGGSTYYADSVKGRFTISRDNAKNTVYLQMNSLKPEDTAVYYCAKRSYYPARYDYWGQGTQVTVSS | high polyreactivity |
| QVQLVDSGGGLVQAGGSLRLSCAASGFIFSWYAMGWYRQAPGKERELVAAINWSGGSTYYADSVKGRFTISRDNAKNTVYLQMNSLKPEDTAVYYCAAVTSGISKYDYWGQGTQVTVSS | high polyreactivity |
| QVQLVESGGGLVQAGGSLRLSCAAAGNTIRVNAMGWYRHAHGKERELVAAISFSGGRTYYADSVKGRFTISRDNAKNTVYLQMNSLKPEDTAVYYCAALRRYPRPNIYGYWGQGTQVTVSS | low polyreactivity |
| QDQLVESGGGLVQAGGSLRLSCAASGITFYRNAMGWYRQAPGKERELVAAISRRGGITRYADSVKGRFTISRDNAKNTVYLQMNSLKPEDTAVYYCAKAIGSTALRRATEDYWGQGTQVTVSS | high polyreactivity |
| QVQLVESVGGVVQAGGSLGLSCAASGRPFGRNVMGWYRQAPGKERELVAAISRSGGSTYYADSVKGRFTISRDNAKNTVYFQMNSLKPEDTAVYYCAAYSVGDYYWGQGTQVTVSS | high polyreactivity |
| QVQLVESGGGLVQAGCSLRLSCAASGRTFNGYAMGWYRQAPGKERELVAAIASEGDTNYADSVKGRFTISRDNAKNTVYLQMNSLKPEDTAVYYCNADITRIWHFKYDYWGQGTQVTVSS | high polyreactivity |
| QVHLVEAGGGLVQAGGSLRLSCAASACTFWPYARGLSSQAPGQDTELVAAMTSSGSTNYADSVKGRFTITRDNAKNTDYLQMNSLKPEDTAVNYCAADHRPSRFQSSVHLYYYWGQGTQVTVSS | low polyreactivity |
| QVQLVESGGGLVQAGGSLRLSCAASGRIFTWYAMGWYRTAPGKERELVATITGDGNTYYADSVKGRFTISRDNAKNTVYLQMKSLKPEDTAVYYCNRYGYFRYRWGKYEYWGQGTQVTVSS | high polyreactivity |
| QVQLVESGGGLVQAGGSLRLSCAASGSTFPYYTMGGYRQAPGKERELVAAISWRGGSTYYADTVKGRFSISRDNAKNTVYLQMNSLKPEDTAVYYCAARYGVFGYDYWGQGTQVTVSS | high polyreactivity |
| QVQLVESGGGLVQAGGSLRLSCSASGSIFGVYTMGWFRQAPGKERELVAAITSAGSTYADSVKGRFTISRDNAKNTVYLQMNSLKPEDTAVYYCNAESVLLSVLVELREPHEYWGQGTQVTVSS | low polyreactivity |
| QVQLVESGGGLVQAGGSLRLSCAASGRTFFGYAMGWYRQAPGKERELVAAITSSGGRTYYADSVKGRFTISRDNAKNTVYLQMNSLKPEDTAVYYCNTVLSFRSVNIYRGRGDYWGQGSQVTVSS | high polyreactivity |
| QVQLVESGGGLVQAGGSLRLSCAASGRIFYANAMGWYRQAPGKERELVAAISSGGSTYYADSVKGRFTISRDNAKNTVYLQMNSLKPEDTAVYYCAVYTHKKVRPEYDYWGQGTQVTVSS | low polyreactivity |
| QVQLVESGGGLVQAGGSLRLSCAASGSIFAAYAMGWYRQAPGKERELVAVINSRGGITSYADSVKGRFTISRDNAKNTVYLQMNSLKPEDTAVYYCAARPWYSWRYDYWGQGTQVTVSS | high polyreactivity |
| QVQLVESGGGLVQAGGSLRLSCAASGLTFWVYAMGWYRQAPGKERELVAAISGSGARTYYADSVKGRFTISRDNAKNTVYLQMNSLKPEDTAVYYCAARAVRATAKYEYWGQGTQVTVSS | high polyreactivity |
| QVQLVESGGGLVQAGGSLRLSCAASGYIFSYYAMGWYRQAPGKEREFVAAIRWRGGSTYYADSVKGRFTISRDNAKNTVYLQMNSLKPEDTAVYYCAAGPGTSYYWGQGTQVTVSS | high polyreactivity |
| QVQLVESGGGLVQAGGSLRLSCAASGFTFPHYAMGWYRQAPGKERELVAAISWSGGNTYYADSVKGRFTISRDNAKNTVYLQMNSLKPEDTAVYYCAKGYSSHYWWAYDSWGQVTQVTVSS | high polyreactivity |
| QVQLVESGGGLVQAGGSLRLSCAASGSIFPSYAMGWYRQAPGKERELVATISGSGTRTYYADSVKGRFTISRDNAKYTFYLQMNSLKPEDTAVYYCAAETHVESGSRDFYTEDYWGQGTQVTVSS | low polyreactivity |
| QVQLVESGGGLVQAGGSLRLSGAASGSTCYFNAQGWFRPAPGKERELVAAITYSGGSTYYADSVKGRFTISRDNAKNTVYLQLNSLKPEDTAVYYCAAQWRRHSTRSRYYYWGQGTQVTVSS | high polyreactivity |
